Values of other authors in PMC4755228.

Target: CD38 (Homo sapiens) (UniProt P28907)
Experiment: BIAcore SPR

Kd: 4.36 nM
Substance: daratumumab
